Experimental data reported in the supplement of paper PMC12764529.
± gives the half width of the 95% confidence interval.

assay: folding stability dG unfold from trypsin proteolysis; higher = more stable
In short: (§1)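 Digests were run with trypsin and chymotrypsin at 11 concentrations in threefold dilutions, plus a no-protease condition, on designed mini-proteins in a PA-tagged cDNA display construct. The mini-proteins were under 80 residues, had no cysteine, and were kept only when AlphaFold2 dimer inter-PAE was above 15. After sequencing, Bayesian fitting of the counts gave K50, from which unfolding free energy was derived against a sequence-predicted unfolded-state K50 and a shared folded-state K50, per protease or combined.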

Row | Sequence | folding stability dG unfold [kcal/mol]
1 | SAGGSAGGSAGGLVLRGPNDSLLFVLYNPDTGLAVFYNPATNQLLVVNLPLPKPKPSELLSAGGSAGGSAGG [r7_383_TrMRF] | 2.38 ± 0.089
2 | SAGGSAGGSAGRRLVLEFDDESLAVPAAEFLERVLGLELVSIERVPDGERERVLVVLDFPSAGGSAGGSAGG [r11_232_TrMRF] | 1.78 ± 0.036
3 | SAGGKMSLEDIKEVKITKISEEELKKNGTIKIEIYNKNGKLIKTIEIKIKPVKVKDKDGKEKTLEELKSAGG [r13_864_TrROS_Hall] | 0.897 ± 0.042
4 | SAGGSAGGPYYIMVDIEMYNPQDGKERNFTLMIPVPPGDLPKIKEELLSAGFPIKIKNISIMPPSAGGSAGG [r6_151_TrROS] | 2.62 ± 0.14
5 | SAGGSAGGSWIILIHWPNGKEIPIFFKSPEEANEIAEEIKKIFQEKGMEPVSVEIYPIKPGQMSAGGSAGGS [r12_301_TrROS] | 2.47 ± 0.086
6 | SAGWYIKIKIEYPGDGQKKLEVPIPIPSPEEAKEFADEIADMLAEQNGGNIKIEVEVFRLPPVPPEDQGSAG [r5_87_TrROS] | 0.544 ± 0.11
7 | SAGMKEVTVSKDELEEILKKLPPNKTYKVTLYNPNGPTYEFTVTVENDTIKINEGPPNKSENLKVTLVSSAG [r5_85_JUSTAS] | 1.53 ± 0.036
8 | SAGGSSSLAIITIKPKEIKSYYNPNNPVVVSEMEFEVDITIYSDNEISPEKVKELIEEIEKAFPGIKSAGGS [r8_306_TrMRF] | 1.31 ± 0.051
9 | SAGGSAGGSAGMTPGPAPRPKVTVEPSLSEVPEDDSIVTTTTVTFPDTGETTSSTTTSSASAGGSAGGSAGG [r17_31_JUSTAS] | 0.337 ± 0.064
10 | SAGGSAGGLHPDEEFVVLFRIDVRARPVSPNAHPELKKKFPNAVIVEAKIDVLILPKEKVKELFSAGGSAGG [r6_830_TrMRF] | 2.84 ± 0.1
11 | SAGGSFIKITTKLPNRKIEIPIPDAEIEVEGNTVTITFPPGNAEEVKKAVLEASDEVEITEVKIIDESAGGS [r8_490_JUSTAS] | -0.107 ± 0.04
12 | SAGKIEVKKNYVVIEIKVEGKELKLVIKVKTKEEQEKALELVKKLEEELKKEGLEVEVKVEVFKEGEEVSAG [r5_823_TrROS_Hall] | 2.2 ± 0.15
13 | SAGGSAGGSAGGKMKPVTIYIKNKDGSTAKLKVINGKVEITFPNGEKKTISAKDLKIYKSAGGSAGGSAGGS [r10_1176_TrROS_Hall] | 0.631 ± 0.086
14 | SAGGSAMSLEELKGHLVRLTLPDGRVVVAPVKEMDEEAPVLVIEFGGKPILIPKDAPVKLEVLPPGSAGGSA [r15_355_TrMRF] | 0.962 ± 0.039
15 | SAGGSAGGSAGMVIVDPERGYIYIPFPEDIEPEEFIEANKIPEFDIEVLEIGENIPVIKLSAGGSAGGSAGG [r17_323_TrMRF] | 0.357 ± 0.047
16 | SAGGSAGGSAGKEYYVVAKVEDPSTGKVTVYVGPFSDFVKTFDPKNSKVEFFLVEKDALKSAGGSAGGSAGG [r11_334_TrMRF] | 1.87 ± 0.073
17 | SAGGSAGGSAKMVIVNITLKNKDGKEFTISIEADPSVIKNIIKKLFNAKINKIEIYPLSEALSAGGSAGGSA [r18_107_TrMRF] | 2.49 ± 0.11

assay: folding stability dG unfold (combined trypsin and chymotrypsin); higher = more stable
In short: as §1

Row | Sequence | folding stability dG unfold [kcal/mol]
18 | SAGGSAGGSAGGLVLRGPNDSLLFVLYNPDTGLAVFYNPATNQLLVVNLPLPKPKPSELLSAGGSAGGSAGG [r7_383_TrMRF] | 2.68 ± 0.15
19 | SAGGSAGGSAGRRLVLEFDDESLAVPAAEFLERVLGLELVSIERVPDGERERVLVVLDFPSAGGSAGGSAGG [r11_232_TrMRF] | 2.21 ± 0.09
20 | SAGGKMSLEDIKEVKITKISEEELKKNGTIKIEIYNKNGKLIKTIEIKIKPVKVKDKDGKEKTLEELKSAGG [r13_864_TrROS_Hall] | 1.29 ± 0.11
21 | SAGGSAGGPYYIMVDIEMYNPQDGKERNFTLMIPVPPGDLPKIKEELLSAGFPIKIKNISIMPPSAGGSAGG [r6_151_TrROS] | 2.74 ± 0.18
22 | SAGGSAGGSWIILIHWPNGKEIPIFFKSPEEANEIAEEIKKIFQEKGMEPVSVEIYPIKPGQMSAGGSAGGS [r12_301_TrROS] | 2.32 ± 0.21
23 | SAGWYIKIKIEYPGDGQKKLEVPIPIPSPEEAKEFADEIADMLAEQNGGNIKIEVEVFRLPPVPPEDQGSAG [r5_87_TrROS] | 1.82 ± 0.21
24 | SAGMKEVTVSKDELEEILKKLPPNKTYKVTLYNPNGPTYEFTVTVENDTIKINEGPPNKSENLKVTLVSSAG [r5_85_JUSTAS] | 2 ± 0.051
25 | SAGGSSSLAIITIKPKEIKSYYNPNNPVVVSEMEFEVDITIYSDNEISPEKVKELIEEIEKAFPGIKSAGGS [r8_306_TrMRF] | 2.32 ± 0.18
